Laboratory results as given in patent publication US20070160576A1, “IL-17A/F heterologous polypeptides and therapeutic uses thereof” (Genentech, Inc., priority 2001, published 2007).

Assays:
[1] = molecular target: T1, IL-17R (PRO1) extracellular domain, purified, monomeric (human, UniProt Q96F46 33-320); assay: SPR (BIAcore)
T1 construct: extracellular domain; also called human IL-17 receptor
Protocol: (§1) Sensorgrams-were obtained for a series of six, two-fold serially diluted protein solutions. The highest concentration used was 1000 or 500 nM protein and the solutions were prepared in the running buffer, PBS containing 0.05% Tween-20. The sensor chip surface was regenerated between binding cycles by injection of a 25 ┘L aliquot of 0.1 M acetic acid, 0.2 M NaCl, pH 3 to elute non-covalent bound protein. Sensorgrams were evaluated according to a 1:1 binding model by non-linear regression analysis using software supplied by the manufacturer. […] The amount of bound receptor was determined from the resonance signal obtained after completion of the association phase.

[2] = molecular target: T2, PRO5801 (human IL-17RH1 receptor) (Homo sapiens, UniProt Q9NRM6); assay: Receptor/ligand interaction screening assay (immunoadhesin); type: binding
T2 sequence (Q9NRM6 18-502): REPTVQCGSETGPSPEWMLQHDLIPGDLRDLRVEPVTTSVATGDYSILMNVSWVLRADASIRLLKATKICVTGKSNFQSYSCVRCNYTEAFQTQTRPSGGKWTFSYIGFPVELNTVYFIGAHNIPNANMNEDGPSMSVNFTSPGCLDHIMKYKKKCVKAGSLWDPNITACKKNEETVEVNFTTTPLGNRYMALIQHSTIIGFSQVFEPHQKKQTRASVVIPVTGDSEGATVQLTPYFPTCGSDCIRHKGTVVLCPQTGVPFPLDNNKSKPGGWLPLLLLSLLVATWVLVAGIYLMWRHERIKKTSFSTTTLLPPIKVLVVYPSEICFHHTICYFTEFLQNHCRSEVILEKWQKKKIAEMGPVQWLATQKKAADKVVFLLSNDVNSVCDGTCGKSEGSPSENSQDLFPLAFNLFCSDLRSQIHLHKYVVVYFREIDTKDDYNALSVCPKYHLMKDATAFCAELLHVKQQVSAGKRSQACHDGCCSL
Protocol: In general, the assay is performed as follows. A PRO polypeptide of the present invention suspected of being a ligand for a receptor is expressed as a fusion protein containing the Fc domain of human IgG (an immunoadhesin). Receptor-ligand binding is detected by allowing interaction of the immunoadhesin polypeptide with cells (e.g. Cos cells) expressing candidate PRO polypeptide receptors and visualization of bound immunoadhesin with fluorescent reagents directed toward the Fc fusion domain and examination by microscope. Cells expressing candidate receptors are produced by transient transfection, in parallel, of defined subsets of a library of cDNA expression vectors encoding PRO polypeptides that may function as receptor molecules. Cells are then incubated for 1 hour in the presence of the PRO polypeptide immunoadhesin being tested for possible receptor binding. The cells are then washed and fixed with paraformaldehyde. The cells are then incubated with fluorescent conjugated antibody directed against the Fc portion of the PRO polypeptide immunoadhesin (e.g. FITC conjugated goat anti-human-Fc antibody). The cells are then washed again and examined by microscope. A positive interaction is judged by the presence of fluorescent labeling of cells transfected with cDNA encoding a particular PRO polypeptide receptor or pool of receptors and an absence of similar fluorescent labeling of similarly prepared cells that have been transfected with other cDNA or pools of cDNA. If a defined pool of cDNA expression vectors is judged to be positive for interaction with a PRO polypeptide immunoadhesin, the individual cDNA species that comprise the pool are tested individually (the pool is “broken down”) to determine the specific cDNA that encodes a receptor able to interact with the PRO polypeptide immunoadhesin.
In another embodiment of this assay, an epitope-tagged potential ligand PRO polypeptide (e.g., 8 histidine “His” tag) is allowed to interact with a panel of potential receptor PRO polypeptide molecules that have been expressed as fusions with the Fc domain of human IgG (immunoadhesins). Following a 1 hour co-incubation with the epitope tagged PRO polypeptide, the candidate receptors are each immunoprecipitated with protein A beads and the beads are washed. Potential ligand interaction is determined by Western blot analysis of the immunoprecipitated complexes with antibody directed towards the epitope tag. An interaction is judged to occur if a band of the anticipated molecular weight of the epitope tagged protein is observed in the Western blot analysis with a candidate receptor, but is not observed to occur with the other members of the panel of potential receptors.

IL-17R = molecular target: T3, IL-17R (Homo sapiens, UniProt Q96F46); assay: SPR (BIAcore) binding measurements; conditions: IL-17R in solution, cytokine immobilized
T3 construct: the extracellular domains (ECDs) of either of the two receptors IL-17R (designated PRO1) and IL-17RH1 (PRO5801)
Protocol: (§2) The kinetics and affinity of IL-17, IL-17E (PRO10272), or IL-17F (PRO20110) binding to IL-17R or IL-17RH1 (PRO5801) were determined by SPR measurements on a Pharmacia BIAcore 1000 instrument (Phamacia Biosensor, Piscataway N.J.). IL-17 ligand or receptor was immobilized onto a flow cell of a CM5 sensor chip via random coupling to amino groups, N-hydroxysuccinimide chemistry, by using a protocol developed by the manufacturer. An immobilization level of about 500 resonance units (RU) was obtained for IL-17R, IL-17RH1, and IL-17F, whereas IL-17 and IL-17E immobilization levels were 1200 and 1500 RU, respectively. A strong signal was obtained for IL-17R binding to immobilized IL-17. […] After blocking unreacted sites with ethanolamine, binding measurements were performed using a flow rate of 25 ┘L/min. Sensorgrams-were obtained for a series of six, two-fold serially diluted protein solutions. The highest concentration used was 1000 or 500 nM protein and the solutions were prepared in the running buffer, PBS containing 0.05% Tween-20. The sensor chip surface was regenerated between binding cycles by injection of a 25 ┘L aliquot of 0.1 M acetic acid, 0.2 M NaCl, pH 3 to elute non-covalent bound protein. Sensorgrams were evaluated according to a 1:1 binding model by non-linear regression analysis using software supplied by the manufacturer. In separate experiments to measure competition between IL-17 variants for binding receptors, a fixed concentration of receptor was incubated with a varied concentration of IL-17 protein followed by injection of this mixture onto a flow cell having immobilized IL-17 protein. The amount of bound receptor was determined from the resonance signal obtained after completion of the association phase.

IL-17RH1 (PRO5801) = molecular target: T4, IL-17RH1 (PRO5801) (Homo sapiens, UniProt Q9NRM6); assay: SPR (BIAcore) binding measurements; conditions: for Koff × 10^4: value is Koff × 10^4; for Kon × 10^−5: value is Kon × 10^−5
T4 construct: the extracellular domains (ECDs) of either of the two receptors IL-17R (designated PRO1) and IL-17RH1 (PRO5801)
T4 sequence (Q9NRM6 18-292 limits assumed): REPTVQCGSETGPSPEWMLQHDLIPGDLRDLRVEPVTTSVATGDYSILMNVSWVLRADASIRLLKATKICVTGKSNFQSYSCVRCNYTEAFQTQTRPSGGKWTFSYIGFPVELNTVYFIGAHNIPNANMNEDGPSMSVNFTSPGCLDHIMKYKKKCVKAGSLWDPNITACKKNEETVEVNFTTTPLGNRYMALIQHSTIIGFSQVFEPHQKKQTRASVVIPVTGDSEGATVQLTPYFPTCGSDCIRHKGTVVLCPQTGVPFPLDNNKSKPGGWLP
Protocol: as §2

IL-17RH1 = molecular target: T5, IL-17RH1 (Homo sapiens, UniProt Q9NRM6); assay: SPR competition for receptor binding to immobilized IL-17E; conditions: IL-17RH1 31 nM; IL-17F at 1.3 ┘M
T5 construct: the extracellular domains (ECDs) of either of the two receptors IL-17R (designated PRO1) and IL-17RH1 (PRO5801)
T5 sequence (Q9NRM6 18-292 limits assumed): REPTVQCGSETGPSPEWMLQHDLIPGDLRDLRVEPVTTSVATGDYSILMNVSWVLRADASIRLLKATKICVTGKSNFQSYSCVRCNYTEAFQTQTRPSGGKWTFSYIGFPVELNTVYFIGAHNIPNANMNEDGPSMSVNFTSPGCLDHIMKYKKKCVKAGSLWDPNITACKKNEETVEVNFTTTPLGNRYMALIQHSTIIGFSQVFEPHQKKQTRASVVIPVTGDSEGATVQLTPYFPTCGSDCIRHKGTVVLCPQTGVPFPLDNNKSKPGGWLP
Protocol: as §2, with “The sensor chip surface was regenerated between binding cycles by injection of a 25 ┘L aliquot of 0.1 M acetic acid, 0.2 M NaCl, pH 3 to elute non-covalent bound protein.” left out, “In separate experiments to measure competition between IL-17 variants for binding receptors, a fixed concentration of receptor was incubated with a varied concentration of IL-17 protein followed by injection of this mixture onto a flow cell having immobilized IL-17 protein.” left out, “phase. […]” for “phase.”

[3] = molecular target: T6, IL-17RH1 (PRO5801) extracellular domain, purified, monomeric (human, UniProt Q9NRM6 18-292); assay: SPR (BIAcore 1000), IL-17E immobilized, 1:1 model
T6 construct: extracellular domain
T6 sequence (looked up): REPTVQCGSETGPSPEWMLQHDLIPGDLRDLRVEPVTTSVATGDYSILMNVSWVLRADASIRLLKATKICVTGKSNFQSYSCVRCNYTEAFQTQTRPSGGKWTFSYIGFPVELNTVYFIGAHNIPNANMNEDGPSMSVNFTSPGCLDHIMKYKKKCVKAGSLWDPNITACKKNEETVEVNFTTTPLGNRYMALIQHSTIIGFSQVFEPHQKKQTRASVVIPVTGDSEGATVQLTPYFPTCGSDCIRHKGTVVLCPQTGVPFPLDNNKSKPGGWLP
Protocol: as §1

[4] = molecular target: T6, IL-17RH1 (PRO5801) extracellular …; assay: SPR (BIAcore 1000), IL-17RH1 immobilized, 1:1 model
[5] = molecular target: T6, IL-17RH1 (PRO5801) extracellular …; assay: SPR (BIAcore), IL-17F immobilized
Protocol: as §1

[6] = molecular target: T7, IL-17R on transfected Cos cells (human, UniProt Q96F46 33-866); assay: binding to transfected Cos cells; data not shown
T7 construct: whole, on cells; also called Cos cells transfected with IL-17R

[7] = immobilized IL-17E, ligand IL-17RH1
[8] = immobilized IL-17RH1, ligand IL-17E

B1: human IL-17E (PRO10272), protein used in SPR (ligand, UniProt Q9H293 33-177, looked up)
chain: YSHWPSCCPSKGQDTSEELLRWSTVPVPPLEPARPNRHPESCRASEDGPLNSRAISPWRYELDRDLNRLPQDLYHARCLCPHCVSLQTGSHMDPRGNSELLYHNQTVFYRRPCHGEKGTHKGYCLERRLYRVSLACVCVRPRVMG
notes: construct not described
Does B1 bind [1]?
Result: no binding

What about the “binding to IL-17RH1 receptor (PRO5801)” value [2] of the same molecule?
The value was “binds to”.

And the “SPR binding to IL-17R (in words)” value (IL-17R)?
Its value is “no binding was observed”.

And the “SPR binding to IL-17RH1 (in words)” value (IL-17RH1 (PRO5801))?
The value was “high affinity binding”.

And the “Koff × 10^4” value (IL-17RH1 (PRO5801); [7])?
The value was 7.0 s^−1.

And the “Kon × 10^−5” value (IL-17RH1 (PRO5801); [7])?
The value was 6.7 M^−1 s^−1.

What about the “Koff × 10^4” value (IL-17RH1 (PRO5801); [8]) of the same molecule?
Its value is 6.2 s^−1.

And the “Kon × 10^−5” value (IL-17RH1 (PRO5801); [8])?
Its value is 4.3 M^−1 s^−1.

What about the “competition for binding of IL-17RH1 to immobilized IL-17E” value (IL-17RH1) of the same molecule?
The value was “completely inhibited”.

And the Kd [3]?
The Kd was 1.1 nM.

And the koff [3]?
The koff was 0.0007 s⁻¹.

What about the kon [3] of the same molecule?
The kon was 670000 M⁻¹ s⁻¹.

And the Kd [4]?
Its Kd is 1.4 nM.

And the koff [4]?
The koff was 0.00062 s⁻¹.

And the kon [4]?
Its kon is 430000 M⁻¹ s⁻¹.

B2: human IL-17F (PRO20110) (ligand)
chain: RKIPKVGHTFFQKPESCPPVPGGSMKLDIGIINENQRVSMSRNIESRSTSPWNYTVTWDPNRYPSEVVQAQCRNLGCINAQGKEDISMNSVPIQQETLVVRRKHQGCSVSFQLEKVLVTVGCTCVTPVIHHVQ
notes: disulfide-linked homodimer, glycosylated at Asn 53
Which results are given for B2?
binding result [5]: no binding (tested: up to 0.5 µM (printed 0.5 ┘M)); binding result [6]: binds
